Our source for the Kd values is US20100081611A1.

This assay has as its target pre-assembled ICN-CSL complex (UniProt P46531). Kind of assay: surface plasmon resonance, peptide immobilized, pre-assembled ICN-CSL complex.

Chain of pre-assembled ICN-CSL complex (P46531 1760-2126, chain 1 of 2): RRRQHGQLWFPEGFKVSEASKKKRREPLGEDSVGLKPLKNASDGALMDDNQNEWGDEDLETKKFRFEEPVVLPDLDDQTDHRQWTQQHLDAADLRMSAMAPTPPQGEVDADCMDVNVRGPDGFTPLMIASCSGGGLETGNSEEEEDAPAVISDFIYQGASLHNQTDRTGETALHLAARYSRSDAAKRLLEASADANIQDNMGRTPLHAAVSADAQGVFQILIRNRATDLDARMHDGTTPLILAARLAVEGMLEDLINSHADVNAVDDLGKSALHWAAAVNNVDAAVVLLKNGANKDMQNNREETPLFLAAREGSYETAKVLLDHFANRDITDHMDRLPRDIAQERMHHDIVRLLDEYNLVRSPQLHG
Chain of pre-assembled ICN-CSL complex (Q06330 23-449, chain 2 of 2, further chain): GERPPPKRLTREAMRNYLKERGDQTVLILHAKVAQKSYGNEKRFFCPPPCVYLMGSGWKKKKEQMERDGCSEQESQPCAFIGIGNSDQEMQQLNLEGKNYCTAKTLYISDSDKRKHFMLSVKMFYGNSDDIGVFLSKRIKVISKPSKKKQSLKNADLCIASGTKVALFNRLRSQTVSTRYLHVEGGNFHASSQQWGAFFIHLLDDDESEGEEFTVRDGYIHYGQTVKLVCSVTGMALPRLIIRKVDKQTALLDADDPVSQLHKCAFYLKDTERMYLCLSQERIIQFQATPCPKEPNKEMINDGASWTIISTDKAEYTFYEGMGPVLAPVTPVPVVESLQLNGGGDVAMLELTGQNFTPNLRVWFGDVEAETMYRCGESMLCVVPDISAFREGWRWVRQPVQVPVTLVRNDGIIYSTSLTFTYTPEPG

As a reminder, the Kd is the equilibrium constant for the complex coming apart. Lower therefore signals higher affinity. “SAHN1 (REM-G1), internally cross-linked (stapled) MAML-1 polypeptide” registered a Kd of 98 nM.
